Major peak (heterodimer), percent of total protein data for two substances are collected here from paper PMC4072576.

This test has as its target FLAG-ctxIII coexpressed in E. coli with His-ctxI or His-ctxII (Dictyostelium discoideum). In words: AUC.

His-ctxI (recombinant N-terminal His-tagged cortexillin I), sequence (Q54HG2 whole entry): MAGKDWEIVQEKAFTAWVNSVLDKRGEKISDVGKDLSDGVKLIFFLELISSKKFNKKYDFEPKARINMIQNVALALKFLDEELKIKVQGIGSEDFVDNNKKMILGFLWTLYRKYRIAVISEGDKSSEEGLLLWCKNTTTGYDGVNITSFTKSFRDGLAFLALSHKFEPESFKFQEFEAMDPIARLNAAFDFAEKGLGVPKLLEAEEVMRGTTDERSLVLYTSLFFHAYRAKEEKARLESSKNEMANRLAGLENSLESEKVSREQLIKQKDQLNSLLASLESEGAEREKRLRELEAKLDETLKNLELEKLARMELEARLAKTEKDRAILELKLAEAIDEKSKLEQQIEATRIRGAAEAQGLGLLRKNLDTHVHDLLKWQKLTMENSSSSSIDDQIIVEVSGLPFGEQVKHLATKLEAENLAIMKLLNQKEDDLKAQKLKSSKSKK
His-ctxII (recombinant N-terminal His-tagged cortexillin II), sequence (Q550R2 whole entry): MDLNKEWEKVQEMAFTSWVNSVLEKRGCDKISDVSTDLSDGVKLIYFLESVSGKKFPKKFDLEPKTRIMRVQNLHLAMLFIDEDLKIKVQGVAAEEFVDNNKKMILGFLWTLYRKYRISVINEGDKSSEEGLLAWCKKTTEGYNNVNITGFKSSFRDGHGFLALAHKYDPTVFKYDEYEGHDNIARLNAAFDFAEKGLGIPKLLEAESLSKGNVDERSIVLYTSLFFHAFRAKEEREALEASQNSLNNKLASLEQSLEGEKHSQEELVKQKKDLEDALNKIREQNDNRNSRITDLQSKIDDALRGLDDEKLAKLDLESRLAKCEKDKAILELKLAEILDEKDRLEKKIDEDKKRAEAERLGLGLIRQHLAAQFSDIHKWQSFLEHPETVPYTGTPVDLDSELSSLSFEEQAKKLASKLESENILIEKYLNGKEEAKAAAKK

Take “His-ctxII (recombinant N-terminal His-tagged cortexillin II) (from UniProt Q550R2 1-441) (natural protein)”: the major peak (heterodimer), percent of total protein is 70%.

With “His-ctxI (recombinant N-terminal His-tagged cortexillin I) (from UniProt Q54HG2 1-444) (natural protein)”, the major peak (heterodimer), percent of total protein worked out at 60%.
